The results in this text go back to patent CN116199772A (YIDAO BIOTECHNOLOGY SUZHOU CO LTD, dated 2023).

Holding throughout (assay): indirect ELISA, cross-reaction on 9 HPV type antigens
For assay [1], the target named is T1, HPV18亚型抗原 (Human papillomavirus type 18, UniProt P06794 62-568).
T1 construct: Called only 'HPV18 antigen'
T1 sequence: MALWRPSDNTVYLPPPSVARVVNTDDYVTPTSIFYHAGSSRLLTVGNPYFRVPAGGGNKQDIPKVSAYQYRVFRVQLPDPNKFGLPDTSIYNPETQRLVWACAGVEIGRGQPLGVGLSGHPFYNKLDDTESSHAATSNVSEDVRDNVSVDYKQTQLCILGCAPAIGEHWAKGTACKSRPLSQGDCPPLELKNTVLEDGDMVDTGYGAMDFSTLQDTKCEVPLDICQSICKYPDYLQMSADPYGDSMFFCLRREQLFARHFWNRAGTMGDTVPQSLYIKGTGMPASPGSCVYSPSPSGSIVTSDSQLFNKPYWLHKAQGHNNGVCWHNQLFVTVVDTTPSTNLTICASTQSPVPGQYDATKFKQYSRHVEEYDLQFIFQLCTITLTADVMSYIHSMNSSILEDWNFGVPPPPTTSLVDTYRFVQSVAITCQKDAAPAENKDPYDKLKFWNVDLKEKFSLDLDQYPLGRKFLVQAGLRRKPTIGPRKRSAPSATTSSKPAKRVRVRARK

In assay [2] the target is T2, HPV11亚型抗原 (Human papillomavirus type 11, UniProt P04012 1-501).
T2 construct: Called only 'HPV11 antigen'
T2 sequence: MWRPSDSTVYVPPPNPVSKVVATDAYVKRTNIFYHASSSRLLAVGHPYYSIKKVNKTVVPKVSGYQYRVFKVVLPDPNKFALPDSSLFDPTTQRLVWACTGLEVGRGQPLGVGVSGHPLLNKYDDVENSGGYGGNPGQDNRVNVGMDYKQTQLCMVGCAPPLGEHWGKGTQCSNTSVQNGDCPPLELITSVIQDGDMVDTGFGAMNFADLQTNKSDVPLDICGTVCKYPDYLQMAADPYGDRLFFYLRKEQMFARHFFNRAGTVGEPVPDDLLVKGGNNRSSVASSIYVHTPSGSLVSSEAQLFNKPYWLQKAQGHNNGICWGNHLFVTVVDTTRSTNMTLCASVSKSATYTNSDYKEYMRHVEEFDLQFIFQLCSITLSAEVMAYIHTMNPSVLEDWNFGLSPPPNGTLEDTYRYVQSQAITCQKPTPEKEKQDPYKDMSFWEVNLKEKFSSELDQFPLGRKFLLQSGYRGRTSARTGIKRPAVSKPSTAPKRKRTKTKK

The target in assay [3] is T3, HPV 58亚型抗原 (Human papillomavirus type 58, UniProt P26535 27-524).
T3 construct: Called only 'HPV 58 antigen'
T3 sequence: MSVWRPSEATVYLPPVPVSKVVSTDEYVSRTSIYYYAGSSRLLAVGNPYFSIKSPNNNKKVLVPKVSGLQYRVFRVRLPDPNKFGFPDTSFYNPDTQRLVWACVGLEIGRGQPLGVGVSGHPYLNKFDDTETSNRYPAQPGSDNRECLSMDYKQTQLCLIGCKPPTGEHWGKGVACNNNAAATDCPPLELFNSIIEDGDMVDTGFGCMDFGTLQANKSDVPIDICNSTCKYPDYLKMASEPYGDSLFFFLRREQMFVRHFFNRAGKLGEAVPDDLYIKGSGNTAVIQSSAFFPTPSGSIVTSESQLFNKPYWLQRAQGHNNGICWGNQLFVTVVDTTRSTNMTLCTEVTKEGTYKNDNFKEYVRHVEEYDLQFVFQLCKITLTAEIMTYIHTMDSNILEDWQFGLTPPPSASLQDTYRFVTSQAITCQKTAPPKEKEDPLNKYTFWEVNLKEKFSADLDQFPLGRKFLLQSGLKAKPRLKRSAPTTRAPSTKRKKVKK

Assay [4] concerns the target T4, HPV 45亚型抗原 (Human papillomavirus type 45, UniProt P36741 30-539).
T4 construct: Called only 'HPV 45 antigen'
T4 sequence: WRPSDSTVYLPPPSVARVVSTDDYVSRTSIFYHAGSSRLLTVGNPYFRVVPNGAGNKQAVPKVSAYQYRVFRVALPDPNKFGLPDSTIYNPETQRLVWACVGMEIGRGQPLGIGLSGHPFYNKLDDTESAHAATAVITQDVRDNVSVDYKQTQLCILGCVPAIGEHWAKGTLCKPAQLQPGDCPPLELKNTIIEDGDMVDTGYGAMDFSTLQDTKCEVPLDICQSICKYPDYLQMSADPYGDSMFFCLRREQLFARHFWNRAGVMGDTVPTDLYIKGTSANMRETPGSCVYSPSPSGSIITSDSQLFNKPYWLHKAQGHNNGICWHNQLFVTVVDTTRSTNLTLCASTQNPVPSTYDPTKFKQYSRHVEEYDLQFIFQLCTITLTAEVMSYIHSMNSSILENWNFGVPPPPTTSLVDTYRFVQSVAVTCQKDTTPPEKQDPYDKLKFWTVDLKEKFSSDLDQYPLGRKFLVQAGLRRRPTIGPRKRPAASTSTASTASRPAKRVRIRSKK

Assay [5] concerns the target T5, HPV 16亚型抗原 (Human papillomavirus type 16, UniProt P03101 1-505).
T5 construct: Called only 'HPV 16 antigen'
T5 sequence: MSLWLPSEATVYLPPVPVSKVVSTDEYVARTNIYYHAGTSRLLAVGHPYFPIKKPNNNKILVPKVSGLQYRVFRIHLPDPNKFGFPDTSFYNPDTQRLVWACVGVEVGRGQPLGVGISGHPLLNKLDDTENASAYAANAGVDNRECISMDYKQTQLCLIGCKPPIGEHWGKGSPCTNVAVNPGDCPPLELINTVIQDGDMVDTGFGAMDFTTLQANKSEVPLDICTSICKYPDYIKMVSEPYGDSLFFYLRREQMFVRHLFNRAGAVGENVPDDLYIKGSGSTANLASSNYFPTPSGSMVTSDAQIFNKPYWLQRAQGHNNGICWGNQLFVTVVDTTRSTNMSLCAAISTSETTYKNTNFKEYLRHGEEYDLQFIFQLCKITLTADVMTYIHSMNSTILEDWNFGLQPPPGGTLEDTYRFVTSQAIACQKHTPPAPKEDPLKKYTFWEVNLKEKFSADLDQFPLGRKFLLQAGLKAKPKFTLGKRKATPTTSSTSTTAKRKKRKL

For assay [6], the target named is T6, HPV 33亚型抗原 (Human papillomavirus type 33, UniProt P06416 1-499).
T6 construct: Called only 'HPV 33 antigen'
T6 sequence: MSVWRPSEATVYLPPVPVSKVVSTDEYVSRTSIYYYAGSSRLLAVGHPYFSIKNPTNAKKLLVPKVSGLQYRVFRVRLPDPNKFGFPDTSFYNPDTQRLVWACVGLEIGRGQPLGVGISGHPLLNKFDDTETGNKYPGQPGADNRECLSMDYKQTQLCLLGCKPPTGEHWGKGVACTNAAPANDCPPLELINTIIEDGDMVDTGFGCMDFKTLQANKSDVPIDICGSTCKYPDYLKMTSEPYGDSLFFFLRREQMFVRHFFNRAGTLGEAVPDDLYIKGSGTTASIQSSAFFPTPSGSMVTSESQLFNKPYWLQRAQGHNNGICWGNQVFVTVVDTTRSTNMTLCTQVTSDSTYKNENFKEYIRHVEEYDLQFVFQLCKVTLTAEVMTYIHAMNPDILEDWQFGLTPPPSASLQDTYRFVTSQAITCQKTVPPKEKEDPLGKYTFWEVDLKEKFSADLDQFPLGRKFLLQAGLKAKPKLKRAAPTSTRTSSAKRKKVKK

B1: HPV31型单克隆抗体(7H9) (antibody, V domains shown)
VH: QIQLVQSGPELKKPGETVKISCKASGYTFTNYGMNWVKQAPGKGLKWMGWINTYTGEPTYADDFKGRFAFSLETSANTAYLQITNLKNEDMATYFCARRITMEYYYGLDCWGQGTSVTVSS
VL: QAVVTQESALTTSPGETVTLTCRSSTGAVTTSNYANWVQEKPDHLFSGLIGGTNNRVPGVPARFSGSLIGDKAALTITGAQTEDEAIYFCALWYSNHWVFGGGTKLTVL
notes: also called 7H9抗体; HPV31型(7H9)鼠单抗
Consider B1, for which the binding result in assay [1], in assay [2], in assay [3], in assay [4], in assay [5] and in assay [6] was “no binding (tested: 抗原1μg/ml包被; 杂交瘤细胞上清20倍稀释)” in each case.
